B1: OX40-hFc (Fc fusion, human, UniProt P43489 29-214, looked up)
chain: LHCVGDTYPSNDRCCHECRPGNGMVSRCSRSQNTVCRPCGPGFYNDVVSSKPCKPCTWCNLRSGSERKQLCTATQDTVCRCRAGTQPLDSYKPGVDCAPCPPGHFSPGDNQACKPWTNCTLAGKHTLQPASNSSDAICEDRDPPATQPQETQGPPARPITVQPTEAWPRTSQGPSTRPVEVPGGRA
notes: Bought from BioLegend; also called OX40-Fc; biotinylated OX40-hFc; not shown: human Fc (hFc) of the bought reagent
B2: PD-L2-hFc (Fc fusion, human, UniProt Q9BQ51 20-220, looked up)
chain: LFTVTVPKELYIIEHGSNVTLECNFDTGSHVNLGAITASLQKVENDTSPHRERATLLEEQLPLGKASFHIPQVQVRDEGQYQCIIIYGVAWDYKYLTLKVKASYRKINTHILKVPETDEVELTCQATGYPLAEVSWPNVSVPANTSHSRTPEGLYQVTSVLRLKPPPGRNFSCVFWNTHVRELTLASIDLQSQMEPRTHPT
notes: Bought from PeproTech; also called PD-L2-Fc; not shown: human Fc (hFc) of the bought reagent
B3: PD-L2 on IFN-γ stimulated BT-20 cells (ligand, human, UniProt Q9BQ51 20-273, looked up)
chain: LFTVTVPKELYIIEHGSNVTLECNFDTGSHVNLGAITASLQKVENDTSPHRERATLLEEQLPLGKASFHIPQVQVRDEGQYQCIIIYGVAWDYKYLTLKVKASYRKINTHILKVPETDEVELTCQATGYPLAEVSWPNVSVPANTSHSRTPEGLYQVTSVLRLKPPPGRNFSCVFWNTHVRELTLASIDLQSQMEPRTHPTWLLHIFIPFCIIAFIFIATVIALRKQLCQKLYSSKDTTKRPVTTTKREVNSAI
notes: whole, on cells; BT-20 cells also carry PD-L1 and EGFR; also called PD-L2^+ BT-20 cells

Key:
[1] = biological target: T1, αCD3-αEGFR-PD-1-OX40L GEMINI-Exos (human); assay: assay not named
T1 construct: Engineered exosome from Expi293F cells co-transfected with the αCD3-αEGFR-PDGFR TMD and PD-1-CD9-OX40L constructs; Both fusions sit on the same exosome; also called genetically engineered multifunctional immune-modulating exosomes
Experimental: FIG. 3. […] (A) Immunoblot analysis of purified exosomes. […] Data are shown as mean±SD of duplicates. […] The levels of secreted IL-2 were measured by ELISA.
ELISA analysis of binding of engineered exosomes to ligands and receptors. […] High-binding 96 well plates (Greiner Bio-One, Monroe, NC) were coated with various concentrations of exosomes overnight at room temperature. Following extensive washing with PBST, wells were blocked with PBS containing 1% BSA for 2 hours at room temperature, followed by extensive washing with PBST. Corresponding ligands or receptors ([…]; PD-L1-hFc and PD-L2-hFc from PeproTech, Inc. and OX40-hFc from BioLegend) were added and incubated for 2 hours at room temperature, followed by extensive washing with PBST. Goat anti-human IgG-HRP was subsequently added for 1-hour incubation at room temperature, followed by extensive washing. QuantaBlu fluorogenic peroxidase substrate (Thermo Fisher Scientific, MA) was then added.

[2] = biological target: T1, αCD3-αEGFR-PD-1-OX40L GEMINI-Exos; assay: flow cytometry on BT-20 cells, anti-HA detection
Experimental: BT-20 cells were treated with 100 U/mL IFN-γ (BioLegend) for 2 days to induce expression of PD-L1. […] Briefly, cells (300,000 cells per tube) were stained with 100 μg mL⁻¹ of exosomes for 30 minutes at 4° C. Cells were washed three times with PBS containing 2% FBS and stained with an anti-HA antibody (2-2.2.14, from Thermo Fisher Scientific) for 30 minutes at 4° C. […] Thereafter, cells were washed and resuspended in PBS containing 2% FBS, followed by analysis using a BD Fortessa X20 flow cytometer. Data were processed by FlowJo_V10 software (Tree Star Inc., Ashland, OR).

Binder | binding result [1] | binding result [2]
B1 | binds | –
B2 | binds | –
B3 | – | binds
